The target of this assay is human calcium sensitive potassium channel α subunit (human Slowpoke α) (human), Q12791. As to the kind of experiment: cell-based or functional assay.
Chain of human calcium sensitive potassium channel α subunit (human Slowpoke α) (human), Q12791 (Q12791 whole entry): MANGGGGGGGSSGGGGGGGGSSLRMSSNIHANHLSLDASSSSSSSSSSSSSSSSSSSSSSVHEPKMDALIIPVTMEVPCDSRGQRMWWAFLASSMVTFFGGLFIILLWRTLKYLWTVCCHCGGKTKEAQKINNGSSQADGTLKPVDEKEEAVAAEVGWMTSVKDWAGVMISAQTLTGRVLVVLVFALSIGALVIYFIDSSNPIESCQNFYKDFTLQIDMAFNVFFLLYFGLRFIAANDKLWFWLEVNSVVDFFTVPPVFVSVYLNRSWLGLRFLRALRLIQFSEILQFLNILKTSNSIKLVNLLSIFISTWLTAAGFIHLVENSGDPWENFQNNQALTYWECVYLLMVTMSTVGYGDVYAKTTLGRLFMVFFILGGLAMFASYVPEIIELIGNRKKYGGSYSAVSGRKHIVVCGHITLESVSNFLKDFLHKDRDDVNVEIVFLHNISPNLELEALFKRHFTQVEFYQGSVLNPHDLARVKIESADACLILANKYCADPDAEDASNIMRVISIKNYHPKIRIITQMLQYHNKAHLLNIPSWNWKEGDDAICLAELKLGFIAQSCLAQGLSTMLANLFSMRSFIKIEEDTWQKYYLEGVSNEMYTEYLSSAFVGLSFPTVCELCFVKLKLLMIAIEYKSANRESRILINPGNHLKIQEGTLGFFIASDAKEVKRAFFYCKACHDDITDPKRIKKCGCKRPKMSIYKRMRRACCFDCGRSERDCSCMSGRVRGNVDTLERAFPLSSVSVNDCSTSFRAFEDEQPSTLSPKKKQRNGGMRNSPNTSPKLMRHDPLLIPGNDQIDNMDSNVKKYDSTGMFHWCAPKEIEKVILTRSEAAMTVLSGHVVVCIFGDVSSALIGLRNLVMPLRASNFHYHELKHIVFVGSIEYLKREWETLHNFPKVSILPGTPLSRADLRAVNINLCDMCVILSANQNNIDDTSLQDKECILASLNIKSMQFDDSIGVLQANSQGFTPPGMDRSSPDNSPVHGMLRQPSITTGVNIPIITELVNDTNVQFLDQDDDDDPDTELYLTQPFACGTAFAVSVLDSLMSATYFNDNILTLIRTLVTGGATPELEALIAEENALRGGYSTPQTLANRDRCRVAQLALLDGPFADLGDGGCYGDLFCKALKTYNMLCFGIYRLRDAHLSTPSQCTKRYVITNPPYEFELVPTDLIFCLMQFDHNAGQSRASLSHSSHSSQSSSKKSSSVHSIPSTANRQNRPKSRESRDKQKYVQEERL

B1: human calcium sensitive potassium channel β2 subunit, Q9Y691 1-235 (protein)
chain: MFIWTSGRTSSSYRHDEKRNIYQKIRDHDLLDKRKTVTALKAGEDRAILLGLAMMVCSIMMYFLLGITLLRSYMQSVWTEESQCTLLNASITETFNCSFSCGPDCWKLSQYPCLQVYVNLTSSGEKLLLYHTEETIKINQKCSYIPKCGKNFEESMSLVNVVMENFRKYQHFSCYSDPEGNQKSVILTKLYSSNVLFHSLFWPTCMMAGGVAIVAMVKLTQYLSLLCERIQRINR
B1: the V1/2 (half-maximal activation voltage, Boltzmann fit, inside-out patches, 30 µM Ca2+) is -55 mV; the shift in the voltage dependence of activation was determined as 80 mV; the τinact (inactivation time constant at 80 mV with 30 µM intracellular Ca2+) was in the range of 30 to 40 ms.

B2: human calcium sensitive potassium channel β3a subunit, Q9NPA1 23-279 (protein)
chain: MQPFSIPVQITLQGSRRRQGRTAFPASGKKRETDYSDGDPLDVHKRLPSSTGEDRAVMLGFAMMGFSVLMFFLLGTTILKPFMLSIQREESTCTAIHTDIMDDWLDCAFTCGVHCHGQGKYPCLQVFVNLSHPGQKALLHYNEEAVQINPKCFYTPKCHQDRSDLLNSALDIKEFFDHKNGTPFSCFYSPASQSEDVILIKKYDQMAIFHCLFWPSLTLLGGALIVGMVRLTQHLSLLCEKYSTVVRDEVGGKVPYIEQHQFKLCIMRRSKGRAEKS
Regarding B2, the V1/2 (half-maximal activation voltage, Boltzmann fit, inside-out patches, 30 µM Ca2+) came to 45.4 mV and the τinact (inactivation time constant at 80 mV with 30 µM intracellular Ca2+) lay in the range of 30 to 40 ms.

B3: human calcium sensitive potassium channel β3c subunit, Q9NPA1 23-279 (protein)
chain: MFPLLYELTAVSPSPFPQRTAFPASGKKRETDYSDGDPLDVHKRLPSSTGEDRAVMLGFAMMGFSVLMFFLLGTTILKPFMLSIQREESTCTAIHTDIMDDWLDCAFTCGVHCHGQGKYPCLQVFVNLSHPGQKALLHYNEEAVQINPKCFYTPKCHQDRSDLLNSALDIKEFFDHKNGTPFSCFYSPASQSEDVILIKKYDQMAIFHCLFWPSLTLLGGALIVGMVRLTQHLSLLCEKYSTVVRDEVGGKVPYIEQHQFKLCIMRRSKGRAEKS
As to B3, the V1/2 (half-maximal activation voltage, Boltzmann fit, inside-out patches, 30 µM Ca2+) turned out to be 20 mV and the τinact (inactivation time constant at 80 mV with 30 µM intracellular Ca2+) lay within 30 to 40 ms.

Values taken from patent publication EP1475388A2.
